# B1: importin β from S. cerevisiae (ScKap95) (natural protein)
# chain: MSTAEFAQLLENSILSPDQNIRLTSETQLKKLSNDNFLQFAGLSSQVLIDENTKLEGRILAALTLKNELVSKDSVKTQQFAQRWITQVSPEAKNQIKTNALTALVSIEPRIANAAAQLIAAIADIELPHGAWPELMKIMVDNTGAEQPENVKRASLLALGYMCESADPQSQALVSSSNNILIAIVQGAQSTETSKAVRLAALNALADSLIFIKNNMEREGERNYLMQVVCEATQAEDIEVQAAAFGCLCKIMSLYYTFMKPYMEQALYALTIATMKSPNDKVASMTVEFWSTICEEEIDIAYELAQFPQSPLQSYNFALSSIKDVVPNLLNLLTRQNEDPEDDDWNVSMSAGACLQLFAQNCGNHILEPVLEFVEQNITADNWRNREAAVMAFGSIMDGPDKVQRTYYVHQALPSILNLMNDQSLQVKETTAWCIGRIADSVAESIDPQQHLPGVVQACLIGLQDHPKVATNCSWTIINLVEQLAEATPSPIYNFYPALVDGLIGAANRIDNEFNARASAFSALTTMVEYATDTVAETSASISTFVMDKLGQTMSVDENQLTLEDAQSLQELQSNILTVLAAVIRKSPSSVEPVADMLMGLFFRLLEKKDSAFIEDDVFYAISALAASLGKGFEKYLETFSPYLLKALNQVDSPVSITAVGFIADISNSLEEDFRRYSDAMMNVLAQMISNPNARRELKPAVLSVFGDIASNIGADFIPYLNDIMALCVAAQNTKPENGTLEALDYQIKVLEAVLDAYVGIVAGLHDKPEALFPYVGTIFQFIAQVAEDPQLYSEDATSRAAVGLIGDIAAMFPDGSIKQFYGQDWVIDYIKRTRSGQLFSQATKDTARWAREQQKRQLSL
# notes: Kap95 (importin β) of S. cerevisiae, PCR-amplified ORF
# B2: GST-Nup100(1–610) (domain or fragment, S. cerevisiae, UniProt Q02629 1-610, looked up)
# chain: MFGNNRPMFGGSNLSFGSNTSSFGGQQSQQPNSLFGNSNNNNNSTSNNAQSGFGGFTSAAGSNSNSLFGNNNTQNNGAFGQSMGATQNSPFGSLNSSNASNGNTFGGSSSMGSFGGNTNNAFNNNSNSTNSPFGFNKPNTGGTLFGSQNNNSAGTSSLFGGQSTSTTGTFGNTGSSFGTGLNGNGSNIFGAGNNSQSNTTGSLFGNQQSSAFGTNNQQGSLFGQQSQNTNNAFGNQNQLGGSSFGSKPVGSGSLFGQSNNTLGNTTNNRNGLFGQMNSSNQGSSNSGLFGQNSMNSSTQGVFGQNNNQMQINGNNNNSLFGKANTFSNSASGGLFGQNNQQQGSGLFGQNSQTSGSSGLFGQNNQKQPNTFTQSNTGIGLFGQNNNQQQQSTGLFGAKPAGTTGSLFGGNSSTQPNSLFGTTNVPTSNTQSQQGNSLFGATKLTNMPFGGNPTANQSGSGNSLFGTKPASTTGSLFGNNTASTTVPSTNGLFGNNANNSTSTTNTGLFGAKPDSQSKPALGGGLFGNSNSNSSTIGQNKPVFGGTTQNTGLFGATGTNSSAVGSTGKLFGQNNNTLNVGTQNVPPVNNTTQNALLGTTAVPSLQQAPVTN
# notes: Nup100 of budding yeast, GLFG-type FG-repeat region, residues 1-610; source: E. coli BL21(DE3), purified (GSH beads, eluted with glutathione, dialysed); not shown: GST, N-terminal, kept
# How the values were obtained:
# ZZ-HsRanQ69L = ZZ-HsRanQ69L (human, UniProt P62826 1-216, Q69L); assay: SEC; 2 μM of each protein, 20 min on ice, Superdex 200 10/300 in Ran binding buffer (10 mM HEPES pH 7.4, 150 mM NaCl, 2 mM MgOAc2, 1 mM DTT); fractions by SDS-PAGE (SYPRO Ruby) and Western blot against the ZZ-tag; conditions: both partners purified
# [1] = molecular target: B1; assay: pull-down; GST-FG fusions pre-bound to GSH beads; soluble protein (100-500 pmol) pre-mixed with 200 μg bacterial extract proteins in 0.5 ml pulldown buffer (10 mM HEPES pH 7.5, 160 mM KOAc, 1 mM MgOAc2, 1 mM DTT, 0.01% Triton X-100); 20 min, room temperature; eluted with 1 M NaCl, then SDS-sample buffer; SDS-PAGE, SYPRO Ruby; conditions: both partners purified
Binder,binding result (ZZ-HsRanQ69L),binding result [1]
B1,binds,–
B2,–,binds

# — article PMC3679522 (eLife, 2013)
